Data taken from US20240132621A1.

Target: chitinase-3-like protein-1 (YKL-40) on human ovarian cancer cell CA5171 (human) (UniProt P36222)
Experiment: flow cytometry on human ovarian cancer cell CA5171

Chain of UniProt P36222 (P36222 22-383): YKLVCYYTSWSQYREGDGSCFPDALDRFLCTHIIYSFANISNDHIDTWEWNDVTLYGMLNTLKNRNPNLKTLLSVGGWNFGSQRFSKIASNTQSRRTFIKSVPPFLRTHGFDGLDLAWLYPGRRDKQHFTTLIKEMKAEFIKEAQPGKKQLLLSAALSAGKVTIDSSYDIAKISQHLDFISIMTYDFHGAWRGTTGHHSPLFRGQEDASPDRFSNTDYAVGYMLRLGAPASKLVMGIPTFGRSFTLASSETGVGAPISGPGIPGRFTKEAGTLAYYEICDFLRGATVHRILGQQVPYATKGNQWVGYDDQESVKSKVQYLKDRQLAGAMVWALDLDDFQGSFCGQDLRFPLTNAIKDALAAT

control group antibody (IgG)
binding ability (percent, flow cytometry): 28.7%
